Assay results taken from PMC7016029.
Like-named read-outs stand apart in the source and are kept apart here.

B1: Apt02 (structured_DNA)
DNA: GCTGATAGGATGGGTTGTAGGTCTAGGGGGGGGCC
B2: Apt01 (structured_DNA)
DNA: GTCGTGTTTGTTGTTGTTTTCATTTTTGCGGCCC

Tests used:
VEGFR-1 Fc chimera [1] = target: T1, VEGFR-1 Fc chimera (UniProt P17948 27-758); test: SPR
VEGFR-1 Fc chimera [2] = target: T1, VEGFR-1 Fc chimera; test: SPR; remark: listed apart in the source

T1 sequence (P17948 27-758, change not shown): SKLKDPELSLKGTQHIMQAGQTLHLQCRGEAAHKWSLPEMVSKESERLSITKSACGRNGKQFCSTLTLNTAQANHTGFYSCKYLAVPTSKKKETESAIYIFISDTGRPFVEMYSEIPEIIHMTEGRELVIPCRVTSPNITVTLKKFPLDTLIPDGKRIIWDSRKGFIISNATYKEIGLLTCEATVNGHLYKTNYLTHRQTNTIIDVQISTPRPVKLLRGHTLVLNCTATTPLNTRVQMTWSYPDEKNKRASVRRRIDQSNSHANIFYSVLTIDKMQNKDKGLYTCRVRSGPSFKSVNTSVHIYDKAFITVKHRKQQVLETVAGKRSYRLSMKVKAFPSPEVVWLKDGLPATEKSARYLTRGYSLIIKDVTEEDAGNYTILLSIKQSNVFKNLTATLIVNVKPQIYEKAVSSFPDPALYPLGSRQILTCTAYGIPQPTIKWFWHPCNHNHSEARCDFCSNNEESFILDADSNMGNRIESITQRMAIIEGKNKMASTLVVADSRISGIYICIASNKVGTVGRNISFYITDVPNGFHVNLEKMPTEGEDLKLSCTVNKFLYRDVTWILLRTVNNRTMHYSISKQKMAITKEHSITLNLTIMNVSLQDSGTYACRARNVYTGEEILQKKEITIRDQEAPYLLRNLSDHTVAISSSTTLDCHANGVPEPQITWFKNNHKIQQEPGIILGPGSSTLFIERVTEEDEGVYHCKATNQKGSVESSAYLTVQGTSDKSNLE

Binder	Kd (VEGFR-1 Fc chimera [1]) [nM]	Kd (VEGFR-1 Fc chimera [2]) [nM]
B1	1.5	
B2		3.3
